Test system: olfactory receptor (OR X)
Experiment: Luciferase reporter assay using olfactory receptor-expressing HEK293T cells, effect of concurrent addition of LCN15
Assay type: cell-based, human
Conditions: mixed solution of isovaleric acid (30 μM) and LCN15 (1 μM) compared to isovaleric acid (30 μM) alone; 3 hours, 37° C.
Source text: A human olfactory receptor gene was cloned by a PCR method using a human olfactory receptor gene purchased from TrueClone cDNA Clone Collection (OriGene) as a template base on sequence information registered in GenBank. Each gene amplified by the PCR method was subcloned into downstream of a Rho tag sequence of a Rho-pME18S vector (K. Kajiya et al., Journal of Neuroscience, 15 Aug. 2001, 21 (16) 6018-6025, which is incorporated herein by reference in its entirety) using EcoRI and XhoI sites to obtain an expression vector for the human olfactory receptor.
HEK293T cells that expressed the olfactory receptor (OR X) was prepared by the following procedure. […]
The olfactory receptor (OR X) expressed on HEK293T cells is conjugated with Golf to activate adenylate cyclase, thereby increases an amount of intracellular cAMP. In this Example, the measurement for response of the olfactory receptor to a test substance employed luciferase reporter gene assay in which increase of the amount of intracellular cAMP was monitored as increase of a luminescence value derived from firefly luciferase. […] In conjugation with this, a luminescence value derived from Renilla luciferase was used as an internal standard for correcting errors of a gene transfer efficiency and a cell number in each well. […]

B1: lipocalin 15 (protein, listed as Homo sapiens)
chain: MEVLLQPDFNAEKFSGLWYVVSMASDCRVFLGKKDHLSMSTRAIRPTEEGGLHVHMEFPGADGCNQVDAEYLKVGSEGHFRVPALGYLDVRIVDTDYSSFAVLYIYKELEGALSTMVQLYSRTQDVSPQALKSFQDFYPTLGLPKDMMVMLPQSDACNPESKEAP
notes: secreted protein produced in the olfactory mucosa and secreted into the olfactory mucus; recombinant hLCN15 prepared in E. coli
response intensity of the olfactory receptor (Luc/hRLuc value): more enhanced
